Source: article PMC5669276

Legend:
[1] = molecular target: Bluetongue virus (BTV) membrane penetration outer-layer protein VP5, as trimer on the virion (bluetongue virus (BTV)); assay: […]
[2] = molecular target: Bluetongue virus (BTV) membrane penetration outer-layer protein VP5, as trimer on the virion (bluetongue virus (BTV)); assay: cryo-EM structure
[3] = molecular target: Bluetongue virus (BTV) middle-layer core protein VP7, as trimer on the virion (bluetongue virus (BTV)); assay: cryo-EM structure
[4] = molecular target: Bluetongue virus (BTV) receptor-binding outer-layer protein VP2, as trimer on the virion (bluetongue virus (BTV)); assay: cryo-EM structure

## Bluetongue virus (BTV) membrane penetration outer-layer protein VP5, as trimer on the virion (natural protein)
[1]
  stoichiometry N: 3
[2]
  stoichiometry N: 3

## Bluetongue virus (BTV) middle-layer core protein VP7, as trimer on the virion (natural protein)
[3]
  stoichiometry N: 3

## Bluetongue virus (BTV) receptor-binding outer-layer protein VP2, as trimer on the virion (natural protein)
[4]
  stoichiometry N: 3
